The record followed here is the Human Domainome abundance scans (Beltran et al. 2025).

± gives the uncertainty stated by the source.

The first data set can be described thus: abundance fitness (aPCA) (normalised: wild type 0, dead -1); higher = more abundant; growth selection in yeast, the domain comes from the species named. Particulars: Bacillus caldolyticus.
The substance Cold shock protein CspB E21R, P41016 registered an abundance fitness of 0.011 ± 0.036.
On to Cold shock protein CspB G22P, P41016, for which the abundance fitness worked out at 0.032 ± 0.047.
As to Cold shock protein CspB I18R, P41016, the abundance fitness is -0.908 ± 0.044.
On the same count and under the same terms, the figure for Cold shock protein CspB S24E, P41016 is 0.012 ± 0.053; for Cold shock protein CspB V20G, P41016 it is 0.004 ± 0.039.

The same data set, now with this note: Homo sapiens.
Regarding Gamma-crystallin C A162C, P07315, the abundance fitness is -0.092 ± 0.14.
The substance Gamma-crystallin C L167W, P07315 returned an abundance fitness of -0.575 ± 0.23.
Turning to Gamma-crystallin C R153W, P07315, the abundance fitness was -0.775 ± 0.22.
For “Scaffold attachment factor B1 A41C, Q15424”, the abundance fitness was -0.317 ± 0.08.
In the case of “Scaffold attachment factor B1 A41D, Q15424”, the abundance fitness is -0.204 ± 0.064.
“Scaffold attachment factor B1 A41E, Q15424” gave an abundance fitness of -0.049 ± 0.062.
In turn, “Scaffold attachment factor B1 A41F, Q15424” showed an abundance fitness of -0.145 ± 0.053.
Consider “Scaffold attachment factor B1 A41G, Q15424”, for which the abundance fitness was -0.095 ± 0.063.
For the substance “Scaffold attachment factor B1 A41H, Q15424”, the abundance fitness is -0.449 ± 0.11.
The same measure, in the same setting: the figure for “Scaffold attachment factor B1 A41I, Q15424” is -0.114 ± 0.073; for “Scaffold attachment factor B1 A41K, Q15424” it is -0.205 ± 0.068; for “Scaffold attachment factor B1 A41L, Q15424” it is -0.12 ± 0.055.
The substance “Scaffold attachment factor B1 A41M, Q15424” gave an abundance fitness of -0.142 ± 0.061.
In the case of “Scaffold attachment factor B1 A41N, Q15424”, the abundance fitness was -0.311 ± 0.1.
Consider “Scaffold attachment factor B1 A41Q, Q15424”, for which the abundance fitness was -0.257 ± 0.072.
With “Scaffold attachment factor B1 A41R, Q15424”, the abundance fitness is -0.12 ± 0.051.
“Scaffold attachment factor B1 A41S, Q15424” registered an abundance fitness of -0.128 ± 0.053.
Still for that read-out and setting: in the case of “Scaffold attachment factor B1 A41T, Q15424” it was -0.164 ± 0.059.
With “Scaffold attachment factor B1 A41V, Q15424”, the abundance fitness is -0.105 ± 0.053.
“Scaffold attachment factor B1 A41W, Q15424” had an abundance fitness of -0.122 ± 0.049.
With “Scaffold attachment factor B1 A41Y, Q15424”, the abundance fitness was -0.176 ± 0.069.
Substance “Scaffold attachment factor B1 A64C, Q15424” registered an abundance fitness of -0.016 ± 0.077.
“Scaffold attachment factor B1 A64D, Q15424” came in with an abundance fitness of -0.601 ± 0.11.
Consider “Scaffold attachment factor B1 A64F, Q15424”, for which the abundance fitness is -0.317 ± 0.089.
Turning to “Scaffold attachment factor B1 A64G, Q15424”, the abundance fitness was -0.527 ± 0.053.
Substance “Scaffold attachment factor B1 A64H, Q15424” returned an abundance fitness of -0.132 ± 0.082.
Still for that read-out and setting: in the case of “Scaffold attachment factor B1 A64I, Q15424” it was -0.109 ± 0.073; in that of “Scaffold attachment factor B1 A64K, Q15424”, -0.228 ± 0.08; in that of “Scaffold attachment factor B1 A64L, Q15424”, -0.146 ± 0.052.
“Scaffold attachment factor B1 A64M, Q15424” yielded an abundance fitness of -0.416 ± 0.1.
In turn, “Scaffold attachment factor B1 A64N, Q15424” showed an abundance fitness of -0.551 ± 0.15.
The substance “Scaffold attachment factor B1 A64P, Q15424” had an abundance fitness of -0.603 ± 0.087.
Still for that read-out and setting: the figure for “Scaffold attachment factor B1 A64Q, Q15424” is -0.162 ± 0.086.
Consider “Scaffold attachment factor B1 A64R, Q15424”, for which the abundance fitness was -0.236 ± 0.048.
